{
  "source": "paper PMC6983471",
  "key": {"[1]": {"target": "VEK50[RH1/AA] (VEK50^ΔRH1), VEK50 with R17H18 replaced by Ala-Ala (Streptococcus pyogenes (isolate AP53))", "experiment": "ITC"}, "[2]": {"target": "VEK50[RH2/AA] (VEK50^ΔRH2), VEK50 with R30H31 replaced by Ala-Ala (Streptococcus pyogenes (isolate AP53))", "experiment": "ITC"}, "[3]": {"target": "VEK50[RH1/AA] (VEK50^ΔRH1), VEK50 with R17H18 replaced by Ala-Ala (Streptococcus pyogenes (isolate AP53))", "experiment": "AUC"}, "[4]": {"target": "VEK50[RH2/AA] (VEK50^ΔRH2), VEK50 with R30H31 replaced by Ala-Ala (Streptococcus pyogenes (isolate AP53))", "experiment": "AUC"}, "[5]": {"target": "VEK50[RH1/AA] (VEK50^ΔRH1), VEK50 with R17H18 replaced by Ala-Ala (Streptococcus pyogenes (isolate AP53))", "experiment": "NMR titration"}, "[6]": {"target": "VEK50[RH2/AA] (VEK50^ΔRH2), VEK50 with R30H31 replaced by Ala-Ala (Streptococcus pyogenes (isolate AP53))", "experiment": "NMR titration"}},
  "data": [
    {"substance": "K2hPg, kringle 2 domain of human plasminogen, triple variant C4G/E56D/L72Y (domain or fragment)", "values": [
      {"measurement": "Kd", "setting": "[1]", "value": 9, "unit": "nM"},
      {"measurement": "stoichiometry N (K2hPg per peptide)", "setting": "[1]", "value": 1},
      {"measurement": "Kd", "setting": "[2]", "value": 42, "unit": "nM"},
      {"measurement": "stoichiometry N (K2hPg per peptide)", "setting": "[2]", "value": 1},
      {"measurement": "stoichiometry N (K2hPg per peptide)", "setting": "[3]", "value": 1},
      {"measurement": "stoichiometry N (K2hPg per peptide)", "setting": "[4]", "value": 1},
      {"measurement": "stoichiometry N (K2hPg per peptide)", "setting": "[5]", "value": 1},
      {"measurement": "stoichiometry N (K2hPg per peptide)", "setting": "[6]", "value": 1}
    ]}
  ]
}
